Measurements as given in patent publication US20150368338A1 (Janssen / Centocor, published 2015).

T1: IFN-αF (human, UniProt P01568 24-189)
T1 construct: also called IFN-α21; alpha F
T1 chain: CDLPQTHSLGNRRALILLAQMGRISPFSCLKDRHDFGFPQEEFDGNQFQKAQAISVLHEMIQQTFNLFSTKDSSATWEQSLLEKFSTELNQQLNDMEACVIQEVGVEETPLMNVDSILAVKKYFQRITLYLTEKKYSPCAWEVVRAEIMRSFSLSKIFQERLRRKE


Experiments:
Experiment in all cases: ProteOn, one antigen concentration
human IFN-ω = target: T2, human IFN-ω (human, UniProt P05000 24-195)
T2 construct: also called interferon omega

IFN-αC = target: T3, IFN-αC (human, UniProt P01566 24-189)
T3 construct: also called IFN-α10; alpha C

IFN-αF = target: T1, IFN-αF
IFN-αJ1 = target: T4, IFN-αJ1 (human, UniProt P01567 24-189)
T4 construct: also called IFN-α7; alpha J1

IFN-α4a = target: T5, IFN-α4a (human, UniProt P05014 24-189)
T5 construct: also called IFN-αM1

IFN-αG = target: T6, IFN-αG (human, UniProt P01569 24-189)
T6 construct: also called IFN-α5; alpha G

IFN-αWA = target: T7, IFN-αWA (human, UniProt P05015 24-189)
T7 construct: also called IFN-α16; alpha WA

Row | Binder | Kd (human IFN-ω) | Kd (IFN-αC) | Kd (IFN-αF) | Kd (IFN-αJ1) | Kd (IFN-α4a) | Kd (IFN-αG) | Kd (IFN-αWA)
1 | IFWM3334 (antibody, V domains shown, VH IFWH591, VL IFWL1082; converted mAb; also called IFWB3069) VH: EVQLVQSGAEVKKPGESLKISCKGSGYSFTSYWIGWVRQMPGKGLEWMGIIDPSDSDTRYSPSFQGQVTISADKSISTAYLQWSSLKASDTAMYYCARHPGLNWAPDFDYWGQGTLVTVSS VL: DIQMTQSPSSLSASVGDRVTITCRASQSIRNNSLNWYQQKPGKAPKLLIYAASSLQSGVPSRFSGSGSGTDFTLTISSLQPEDFATYYCQQDYNWPLTFGQGTKVEIK | 0.345 nM | 0.62 nM | 5.21 nM | 2.4 nM | 0.744 nM | 0.941 nM | 0.517 nM
2 | IFWM3338 (antibody, V domains shown, VH IFWH591, VL IFWL1091; converted mAb; also called IFWB3073) VH: EVQLVQSGAEVKKPGESLKISCKGSGYSFTSYWIGWVRQMPGKGLEWMGIIDPSDSDTRYSPSFQGQVTISADKSISTAYLQWSSLKASDTAMYYCARHPGLNWAPDFDYWGQGTLVTVSS VL: DIQMTQSPSSLSASVGDRVTITCRASQSIRNTNLNWYQQKPGKAPKLLIHWASSLQSGVPSRFSGSGSGTDFTLTISSLQPEDFATYYCQQGYDTPFTFGQGTKVEIK | 0.057 nM | 0.046 nM | 0.064 nM | 0.245 nM | 0.319 nM | 0.046 nM | 0.2 nM
3 | IFWM3339 (antibody, V domains shown, VH IFWH591, VL IFWL1093; converted mAb; also called IFWB3074) VH: EVQLVQSGAEVKKPGESLKISCKGSGYSFTSYWIGWVRQMPGKGLEWMGIIDPSDSDTRYSPSFQGQVTISADKSISTAYLQWSSLKASDTAMYYCARHPGLNWAPDFDYWGQGTLVTVSS VL: DIQMTQSPSSLSASVGDRVTITCRASQSIANNDLNWYQQKPGKAPKLLIHWASSLQSGVPSRFSGSGSGTDFTLTISSLQPEDFATYYCQQDYDWPLTFGQGTKVEIK | 0.049 nM | 0.059 nM | 0.065 nM | 0.161 nM | 0.235 nM | 0.079 nM | 0.141 nM
4 | IFWM3328 (antibody, V domains shown, VH IFWH591, VL IFWL1064; converted mAb; also called IFWB3063) VH: EVQLVQSGAEVKKPGESLKISCKGSGYSFTSYWIGWVRQMPGKGLEWMGIIDPSDSDTRYSPSFQGQVTISADKSISTAYLQWSSLKASDTAMYYCARHPGLNWAPDFDYWGQGTLVTVSS VL: DIQMTQSPSSLSASVGDRVTITCRASQSINNLNWYQQKPGKAPKLLIYWASSLQSGVPSRFSGSGSGTDFTLTISSLQPEDFATYYCQQGYDTPFTFGQGTKVEIK | 0.108 nM | 0.099 nM | 0.091 nM | 0.36 nM | 0.41 nM | 0.072 nM | 0.207 nM

The next binders have a lower Kd (human IFN-ω) than those just listed; values first:

Row | Kd (human IFN-ω) | Kd (IFN-αC) | Kd (IFN-αF) | Kd (IFN-αJ1) | Kd (IFN-α4a) | Kd (IFN-αG) | Kd (IFN-αWA) | Binder
5 | 0.019 nM | 0.047 nM | 0.061 nM | 0.11 nM | 0.235 nM | 0.051 nM | 0.105 nM | IFWM3336 (antibody, V domains shown, VH IFWH591, VL IFWL1085; converted mAb; also called IFWB3071) VH: EVQLVQSGAEVKKPGESLKISCKGSGYSFTSYWIGWVRQMPGKGLEWMGIIDPSDSDTRYSPSFQGQVTISADKSISTAYLQWSSLKASDTAMYYCARHPGLNWAPDFDYWGQGTLVTVSS VL: DIQMTQSPSSLSASVGDRVTITCRASQSIRNNYLNWYQQKPGKAPKLLIYAASSLQSGVPSRFSGSGSGTDFTLTISSLQPEDFATYYCQQGYDTPLTFGQGTKVEIK
6 | 0.02 nM | 0.017 nM | 0.016 nM | 0.071 nM | 0.091 nM | 0.034 nM | 0.037 nM | IFWM3337 (antibody, V domains shown, VH IFWH591, VL IFWL1087; converted mAb; also called IFWB3072) VH: EVQLVQSGAEVKKPGESLKISCKGSGYSFTSYWIGWVRQMPGKGLEWMGIIDPSDSDTRYSPSFQGQVTISADKSISTAYLQWSSLKASDTAMYYCARHPGLNWAPDFDYWGQGTLVTVSS VL: DIQMTQSPSSLSASVGDRVTITCRASQSISNSNLNWYQQKPGKAPKLLIHWASSLQSGVPSRFSGSGSGTDFTLTISSLQPEDFATYYCQQWYDHPLTFGQGTKVEIK
7 | 0.042 nM | 0.049 nM | 0.061 nM | 0.245 nM | 0.336 nM | 0.077 nM | 0.137 nM | IFWM3335 (antibody, V domains shown, VH IFWH591, VL IFWL1084; converted mAb; also called IFWB3070) VH: EVQLVQSGAEVKKPGESLKISCKGSGYSFTSYWIGWVRQMPGKGLEWMGIIDPSDSDTRYSPSFQGQVTISADKSISTAYLQWSSLKASDTAMYYCARHPGLNWAPDFDYWGQGTLVTVSS VL: DIQMTQSPSSLSASVGDRVTITCRASQSINYLNWYQQKPGKAPKLLIYGASSLQSGVPSRFSGSGSGTDFTLTISSLQPEDFATYYCQQSHDWPITFGQGTKVEIK
